Test results reported in patent publication US20260225001A1, “COMPOSITIONS AND METHODS FOR PURIFYING BIOLOGICAL FLUIDS” (North Carolina State University, priority 2023, published 2026).
Blank lines part the entries; values can stand above or below the molecule they belong to.

Tests used:
[1] = system: Pichia pastoris HCPs; test: Contribution of individual PichiaGuard peptides to HCP binding (flow-through, BCA, proteomics, IgG incubation); conditions: for coverage of HCPs: FIG. 13, by theoretical isoelectric point; for number of HCPs bound (HCP binding density): FIG. 13, proteomics; for number of HCP species bound compared with PichiaGuard: FIGS. 14A-14H
Description: Within HCP binding, it was observed that sequences 5 through 8 display the highest capacity for HCPs, followed by 4, 3 and 1. The same sequences in order also show low to high IgG binding potential, generating a qualitative understanding of binding capacity (Y-axis) and binding selectivity (HCP/IgG).
The color spectrum diverging from blue to red indicates an increasing number of HCPs with specific molecular weight (Y-axis) and theoretical isoelectric points (X-axis) captured by each peptide.
FIGS. 14A-14H compare the total number of identified HCPs bound by individual peptides with that of the PichiaGuard ensemble.
Analysis of PichiaGuard Peptide Contributions to HCP Binding: Contributions of individual peptides comprising PichiaGuard were discerned in terms of their binding to Pichia pastoris HCPs “by-sequence”. These studies comprised of the flow-through purification of null Pichia culture fluids (no recombinant protein), subsequently purified using chromatographic columns packed with individual peptides. The fluids were purified at a 1-minute residence time and flow-through fractions were collected across time for the identification of bound and unbound HCPs (see chromatograms in FIG. 11A). These fractions were analyzed using total protein quantification assay (BCA) and compared with that of the load sample to compute HCP log-reduction value for each individual sequence (FIG. 11B, left). Simultaneously, 25 μL of each peptide was incubated with a range of IgG concentrations (0.1-30 mg/mL resin) overnight to understand their binding propensities to the competitor molecules under non-competitive conditions. Protein content in the supernatant was estimated and compared to the initial concentrations to observe IgG binding (FIG. 11B, right). All flow-through fractions were analyzed through the proteomics workflow (as described further herein) to identify unbound HCPs and overall, correlate peptide and HCP properties. Briefly, label free quantification was performed to identify HCPs within each flow-through fraction and compared to the feed sample used within the experiment. The data was first grouped as a function of time for each peptide and data filters were applied based on the abundance ratio to label bound and unbound HCPs, at different confidence levels based on the number of fractions they were identified in. Concurrently, the “Peptides” package within RStudio was utilized to calculate sequence-based properties of each HCP such as polarity, H-bonding, hydrophobicity and charge.

[2] = target: K. phaffii host cell proteins (HCPs); test: flow-through chromatography, acetate buffer, RT 1 min, up to 40 CVs
[3] = target: K. phaffii host cell proteins (HCPs); test: flow-through chromatography, acetate buffer, RT 1 min, up to 10 CVs
[4] = target: K. phaffii host cell proteins (HCPs); test: flow-through affinity chromatography
[5] = target: K. phaffii host cell proteins (HCPs); test: flow-through chromatography, 30th CV mark
[6] = target: K. phaffii host cell proteins (HCPs); test: flow-through purification of scFv perfusate, Pichia pastoris HCP ELISA; 150 CV load
[7] = target: K. phaffii host cell proteins (HCPs); test: flow-through chromatography, around the 30th CV
[8] = target: K. phaffii host cell proteins (HCPs); test: flow-through chromatography of mAb harvest, acetate buffer, load up to 15 mg/mL
[9] = target: K. phaffii host cell proteins (HCPs); test: static binding, Langmuir isotherm fit, HCPs treated as a single species; phosphate buffer pH 7.1-7.2; pH 7.15
[10] = target: K. phaffii host cell proteins (HCPs); test: flow-through chromatography of ScFv13R4 harvest, nanoLC-MS/MS
[11] = target: K. phaffii host cell proteins (HCPs); test: flow-through chromatography of ScFv13R4 harvest, 20 mM sodium acetate pH 5.7, RT 1 min; protein loading 9.30 g/L resin
[12] = target: K. phaffii host cell proteins (HCPs); test: flow-through chromatography of ScFv13R4 harvest, 20 mM sodium acetate pH 5.7, RT 1 min; protein loading 14.40 g/L resin
[13] = target: K. phaffii host cell proteins (HCPs); test: flow-through chromatography of ScFv13R4 harvest, 20 mM sodium acetate pH 5.7, RT 1 min; protein loading 2.10 g/L resin
[14] = target: K. phaffii host cell proteins (HCPs); test: flow-through chromatography of ScFv13R4 harvest, 20 mM sodium acetate pH 5.7, RT 1 min; protein loading 7.50 g/L resin
[15] = target: K. phaffii host cell proteins (HCPs); test: flow-through chromatography, acetate buffer, RT 1 min, up to 20 CVs
[16] = target: K. phaffii host cell proteins (HCPs); test: static binding, Langmuir isotherm fit; phosphate buffer pH 7.1-7.2
[17] = target: K. phaffii host cell proteins (HCPs); test: static binding, Langmuir isotherm fit, HCPs treated as a single species; acetate buffer pH 5.7
[18] = target: K. phaffii host cell proteins (HCPs); test: flow-through chromatography of ScFv13R4 harvest, 20 mM sodium acetate pH 5.7, RT 1 min; protein loading 6.30 g/L resin
[19] = target: K. phaffii host cell proteins (HCPs); test: flow-through chromatography, RT 1 min
[20] = target: K. phaffii host cell proteins (HCPs); test: flow-through chromatography of ScFv13R4 harvest, 20 mM sodium acetate pH 5.7, RT 1 min; protein loading 5.10 g/L resin
[21] = target: K. phaffii host cell proteins (HCPs); test: static binding, Langmuir isotherm fit; acetate buffer pH 5.7
[22] = target: K. phaffii host cell proteins (HCPs); test: flow-through chromatography, acetate buffer, RT 1 min, up to 100 CVs
[23] = target: K. phaffii host cell proteins (HCPs); test: flow-through chromatography, DOE study
[24] = target: K. phaffii host cell proteins (HCPs); test: flow-through chromatography of ScFv13R4 harvest, 20 mM sodium acetate pH 5.7, RT 1 min; protein loading 3.90 g/L resin
[25] = target: K. phaffii host cell proteins (HCPs); test: flow-through chromatography, DOE study, acetate buffer
[26] = target: K. phaffii host cell proteins (HCPs); test: flow-through chromatography, DOE study, phosphate buffer

number of HCPs bound (HCP binding density) [1]: least number of HCPs
Molecule: RYWV [Peptide 8]

coverage of HCPs [1]: broad coverage of HCPs with varying pI
number of HCP species bound compared with PichiaGuard [1]: binding most species
Molecule: VWHH [Peptide 7]

% reduction of HCPs and hcDNA [4]: < 99%
load at saturation as % of Qmax [5]: 75 % of Qmax
load ratio at saturation (g of HCPs per L of resin) [5]: 18
HCP removal (logs) [6]: 1.7 logs
cumulative LRV at plateau [7]: 1 LRV
fractional LRV [7]: < 0.5 LRV
B1: PichiaGuard (peptide)
peptide 1: YHKH
peptide 2: RYWK
peptide 3: RWYQ
peptide 4: EWAK
peptide 5: QEKK
peptide 6: WYKK
peptide 7: VWHH
peptide 8: RYWV
modifications: bound to a chromatographic resin; which Toyopearl base is not said at these places

More lines, now with the values behind:

Molecule: EWAK [Peptide 4]
coverage of HCPs [1]: broad coverage of HCPs with varying pI
number of HCPs bound (HCP binding density) [1]: High HCP binding densities
number of HCP species bound compared with PichiaGuard [1]: binding most species

Molecule: QEKK [Peptide 5]
coverage of HCPs [1]: broad coverage of HCPs with varying pI

Molecule: YHKH [Peptide 1]
coverage of HCPs [1]: broad coverage of HCPs with varying pI
number of HCPs bound (HCP binding density) [1]: High HCP binding densities
number of HCP species bound compared with PichiaGuard [1]: binding most species

Molecule: RYWK [Peptide 2]
selectivity (HCP vs IgG binding) ([1]; FIG. 14I, non-competitive conditions): poor selectivity

Molecule: WYKK [Peptide 6]
number of HCP species bound compared with PichiaGuard [1]: binding most species

Molecule: CHO LigaGuard™ resin
cumulative HCP LRV [2]: 0.45 to 0.55 LRV
cumulative HCP LRV [3]: 1 to 1.5 LRV

B2: PichiaGuard-TP650M resin (peptide)
peptide 1: YHKH
peptide 2: RYWK
peptide 3: RWYQ
peptide 4: EWAK
peptide 5: QEKK
peptide 6: WYKK
peptide 7: VWHH
peptide 8: RYWV
modifications: bound to Toyopearl AF-Amino-650M resin
overall HCP LRV [8]: 1.15 LRV
Kd [9]: 30 µM
% of HCPs completely removed [10]: > 84%
% of HCPs partially cleared [10]: 15%
cumulative HCP LRV [11]: 1.14 LRV
cumulative HCP LRV [12]: 1.01 LRV
cumulative HCP LRV [13]: 3 LRV
cumulative HCP LRV [14]: 1.34 LRV
cumulative HCP LRV [15]: 1.5 to 2 LRV
Qmax (maximum binding capacity) (mg HCP per mL resin) [16]: 18.3
Kd [17]: 17.5 µM
cumulative HCP LRV [18]: 1.55 LRV
fold change of HCP clearance activity, phosphate buffer against acetate buffer [19]: 10 fold lower
cumulative HCP LRV [20]: 1.92 LRV
Qmax (maximum binding capacity) (mg HCP per mL resin) [21]: 25.4
cumulative HCP LRV [22]: 1.3 LRV
HCP LRV [23]: 3 LRV
cumulative HCP LRV [24]: 2.55 LRV
cumulative HCP LRV [3]: > 2 LRV

B3: PichiaGuard-TP50F resin (peptide)
peptide 1: YHKH
peptide 2: RYWK
peptide 3: RWYQ
peptide 4: EWAK
peptide 5: QEKK
peptide 6: WYKK
peptide 7: VWHH
peptide 8: RYWV
modifications: bound to aminated Toyopearl HW-50F resin
HCP LRV [25]: 0.7 to 0.9 LRV
HCP LRV [26]: 0.8 to 1 LRV
